By stoichiometry N is commonly meant the number of molecules, sites or subunits per partner or assembly.

This test deals with His5-MttP (MM_1691), DME family transporter of Methanosarcina mazei (Methanosarcina mazei). Nature of the test: SEC. A general note: Size exclusion chromatography separates by hydrodynamic size, large species first.

For “MttQ (MM_1692), small protein of Methanosarcina mazei (natural protein)”, the stoichiometry N amounted to 1.
“MttS (sORF05), small protein of Methanosarcina mazei (natural protein)” had a stoichiometry N of 1.

For the origin of these results see doi:10.64898/2025.12.02.691841.
